The results in this text go back to paper PMC9637222 (Nature Communications, 2022).

This assay deals with T1, InvF (tag-free, purified) (S. Typhimurium, UniProt P69343 1-216).
T1 sequence: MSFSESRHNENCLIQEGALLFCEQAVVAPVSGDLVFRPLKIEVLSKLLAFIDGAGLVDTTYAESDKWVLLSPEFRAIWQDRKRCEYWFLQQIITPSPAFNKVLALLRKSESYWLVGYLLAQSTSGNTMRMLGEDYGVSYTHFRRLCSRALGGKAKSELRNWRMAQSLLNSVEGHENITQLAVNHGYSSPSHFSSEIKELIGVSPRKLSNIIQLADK
The assay is described as follows: ITC. The settings on record: both partners purified.

B1: SicA (tag-free, purified) (natural protein)
chain: MDYQNNVSEERVAEMIWDAVSEGATLKDVHGIPQDMMDGLYAHAYEFYNQGRLDEAETFFRFLCIYDFYNPDYTMGLAAVCQLKKQFQKACDLYAVAFTLLKNDYRPVFFTGQCQLLMRKAAKARQCFELVNERTEDESLRAKALVYLEALKTAETEQHSEQEKE
notes: also called wild-type SicA
Consider B1, for which the binding result is reported as “binds”.
